The source of these data is publication PMC5435683, “Crystal structure of TAZ-TEAD complex reveals a distinct interaction mode from that of YAP-TEAD complex” (Scientific Reports, 2017).

Data set [1] deals with the molecule itself. The data set is described as follows: crystal structure; mTAZ (25-57) with mTEAD4 (210-427), co-expressed and co-purified; hanging drops, 6% PEG 10000, 0.05 M magnesium acetate, 0.1 M tri-sodium citrate pH 5.2, 20 °C; 2.9 Å; 4 TAZ and 4 TEAD in the asymmetric unit, two binding modes (1:1 and 2:2).
Data set [2] addresses T1, mTEAD4 (residues 210-427) Cys360Ser (mouse, UniProt Q62296 210-427, Cys360 replaced with serine).
T1 construct: TEAD4, mouse, residues 210-427, surface-exposed Cys360 replaced with serine; also called TEAD Cys360 to serine; source: E. coli BL21 (DE3), co-expressed with mTAZ (25-57) Asn33Cys, purified as a complex as the wild type
Put plainly: SEC; analytical gel filtration, Superdex 75 10/300 GL; control, cross-linked, and cross-linking reversed with 25 mM DTT for 1 hour at 25 °C. As to conditions: both partners purified. A general note: SEC sorts molecules by how far they enter the pores of the column.

Data set [3] deals with the molecule itself. Put plainly: cross-linking + SEC-MALS; specific disulfide cross-linking of TAZ Asn33Cys with 1.5 mM CuCl2 and 5 mM phenanthroline, 1 hour at 25 °C, stopped with 50 mM EDTA; Superdex 75 5/150 GL, 20 mM Tris pH 8, 150 mM sodium chloride.

T1 sequence (Q62296 210-427 C360S): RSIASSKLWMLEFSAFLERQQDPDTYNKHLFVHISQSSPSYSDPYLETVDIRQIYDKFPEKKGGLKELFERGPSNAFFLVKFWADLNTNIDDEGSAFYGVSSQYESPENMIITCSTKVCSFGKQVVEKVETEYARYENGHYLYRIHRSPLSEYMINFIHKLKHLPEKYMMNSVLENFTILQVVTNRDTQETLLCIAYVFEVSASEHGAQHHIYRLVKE

B1: mTAZ (residues 25-57) (domain or fragment, mouse, UniProt Q9EPK5 25-57, looked up)
chain: DTDLEALFNSVMNPKPSSWRKKILPESFFKEPD
notes: TAZ (WWTR1), mouse, residues 25-57 (helix α1, 13-residue loop, helix α2); Cloned with mTEAD4 in a modified pETDuet-1 vector; also called mouse TAZ; not shown: His6, N-terminal, cleaved
For the molecule B1, the binding result in data set [1] was “binds”.

B2: mTAZ (residues 25-57) Asn33Cys (domain or fragment, mouse, UniProt Q9EPK5 25-57, looked up)
chain: DTDLEALFCSVMNPKPSSWRKKILPESFFKEPD
notes: TAZ (WWTR1), mouse, residues 25-57, Asn33 replaced with cysteine for disulfide cross-linking; In the cross-linked sample Cys33 of two copies is joined by a disulfide (copper phenanthroline); in the control and DTT samples it is not; also called TAZ Asn33Cys; source: E. coli BL21 (DE3), co-expressed with mTEAD4 (210-427) Cys360Ser, purified as a complex as the wild type; not shown: His6, …
As to B2, the results for the “stoichiometry N” value in data set [2] and in data set [3] were 1 and 2, respectively.
